In patent US20160252495A1 (UNIVERSITY OF BRITISH COLUMBIA, published 2016):

Biological target: T1, hen egg white lysozyme (hen, UniProt P00698 19-147)
T1 construct: also called HEL; hen-egg lysozyme
Assay: affinity measurements by microfluidic screening

T1 sequence (P00698 19-147 limits assumed): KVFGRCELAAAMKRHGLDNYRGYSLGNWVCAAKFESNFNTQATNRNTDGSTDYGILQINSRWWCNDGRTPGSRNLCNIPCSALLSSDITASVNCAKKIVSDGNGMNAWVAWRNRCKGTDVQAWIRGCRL

B1: Mm20 mouse anti-hen egg lysozyme antibody (antibody, V domains shown)
VH: QVQLQQSGPELMKPGASVKISCKATGYTFRNYWIEWIKQRPGHGLEWIGEILPESGSINYNEKFKGKATFTADTSSNTAYLQLRSLTSEDSAVYYCFYDNYVFDYWGQGTTL
VL: QIVLIQSPTIMSASPGEKVTMTCSANSSFSYMHWYQQKSGTSPKRWIYDTSKLASGVPARFSGSGSGTSYSLTISSMEAEDAATYYCQQWSRNPTFGAGTKL
B1: binds.
